Experimental findings from publication PMC11347159, “MUT-7 exoribonuclease activity and localization are mediated by an ancient domain” (Nucleic Acids Research, 2023) are described below.

In data set [1] the target is T1, MUT-7^FL/MUT-8^FL complex (Caenorhabditis elegans, UniProt P34607 1-910; Q19672 1-578).
T1 construct: C. elegans exonuclease MUT-7, residues 1-910 (full length); C. elegans MUT-8 (RDE-2), residues 1-578 (full length); Complex formed beforehand by co-expression; also called full-length MUT-7/MUT-8; MUT-7/MUT-8; source: E. coli BL21(DE3) derivative, co-expressed, purified through several chromatographic steps
T1 sequence (looked up) 1: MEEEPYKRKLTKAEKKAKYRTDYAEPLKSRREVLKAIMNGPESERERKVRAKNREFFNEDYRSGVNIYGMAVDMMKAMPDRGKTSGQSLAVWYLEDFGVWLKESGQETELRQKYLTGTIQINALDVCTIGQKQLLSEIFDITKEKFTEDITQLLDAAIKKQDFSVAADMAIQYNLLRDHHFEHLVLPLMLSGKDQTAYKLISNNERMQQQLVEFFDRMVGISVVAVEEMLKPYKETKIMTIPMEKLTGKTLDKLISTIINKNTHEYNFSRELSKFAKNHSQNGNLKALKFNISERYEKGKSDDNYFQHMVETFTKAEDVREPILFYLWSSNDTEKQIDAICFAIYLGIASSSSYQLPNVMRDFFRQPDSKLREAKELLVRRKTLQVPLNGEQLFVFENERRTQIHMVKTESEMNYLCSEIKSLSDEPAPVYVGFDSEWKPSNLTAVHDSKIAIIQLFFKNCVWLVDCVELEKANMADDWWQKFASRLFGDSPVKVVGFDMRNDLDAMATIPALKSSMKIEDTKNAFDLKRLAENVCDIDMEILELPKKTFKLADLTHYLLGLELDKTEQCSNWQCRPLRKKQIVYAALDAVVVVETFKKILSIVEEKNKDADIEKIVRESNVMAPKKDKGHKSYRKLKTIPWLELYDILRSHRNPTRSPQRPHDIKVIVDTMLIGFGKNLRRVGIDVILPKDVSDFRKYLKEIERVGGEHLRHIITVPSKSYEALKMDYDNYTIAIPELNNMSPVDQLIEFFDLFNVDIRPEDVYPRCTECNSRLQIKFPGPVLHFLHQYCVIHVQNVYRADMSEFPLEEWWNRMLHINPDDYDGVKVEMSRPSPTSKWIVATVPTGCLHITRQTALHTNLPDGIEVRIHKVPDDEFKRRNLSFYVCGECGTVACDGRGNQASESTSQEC
T1 sequence (looked up) 2: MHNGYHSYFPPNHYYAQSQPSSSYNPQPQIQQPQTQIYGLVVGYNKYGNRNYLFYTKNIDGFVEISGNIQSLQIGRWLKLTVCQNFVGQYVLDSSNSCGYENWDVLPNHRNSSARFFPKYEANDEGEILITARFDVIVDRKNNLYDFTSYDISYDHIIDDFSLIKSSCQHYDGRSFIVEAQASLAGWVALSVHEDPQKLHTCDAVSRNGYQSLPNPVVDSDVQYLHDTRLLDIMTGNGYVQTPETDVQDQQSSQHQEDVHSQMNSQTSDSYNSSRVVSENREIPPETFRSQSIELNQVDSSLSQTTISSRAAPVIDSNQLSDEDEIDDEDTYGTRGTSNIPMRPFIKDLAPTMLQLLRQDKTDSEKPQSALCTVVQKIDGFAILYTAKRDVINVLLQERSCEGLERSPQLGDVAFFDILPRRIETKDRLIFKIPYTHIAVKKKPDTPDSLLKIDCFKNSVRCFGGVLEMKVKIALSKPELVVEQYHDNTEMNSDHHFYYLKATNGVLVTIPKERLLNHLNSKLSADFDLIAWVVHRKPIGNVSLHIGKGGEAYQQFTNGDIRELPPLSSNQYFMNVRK
In words: pull-down; purified proteins (5 μM) pre-incubated 30 min at 4°C in 20 mM HEPES/NaOH pH 7.5, 150 mM NaCl, 10% glycerol, 0.05% IGEPAL, 2 mM DTT; GST-tagged MUT-16 constructs held on glutathione resin; SDS-PAGE, Coomassie. As to conditions: both partners purified.

Data set [2] has as its target T2, MUT-8^NTD (1–235), purified (Caenorhabditis elegans, UniProt Q19672 1-235).
T2 construct: C. elegans MUT-8 N-terminal domain, residues 1-235
T2 sequence (looked up): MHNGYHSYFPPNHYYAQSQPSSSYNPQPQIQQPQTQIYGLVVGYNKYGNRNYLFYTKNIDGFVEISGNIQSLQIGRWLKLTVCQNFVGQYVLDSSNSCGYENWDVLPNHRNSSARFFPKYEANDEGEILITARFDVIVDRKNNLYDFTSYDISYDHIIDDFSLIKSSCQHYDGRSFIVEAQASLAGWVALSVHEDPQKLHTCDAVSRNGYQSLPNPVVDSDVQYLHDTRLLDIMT
In words: ITC; isothermal titration calorimetry of MUT-8^NTD and MUT-16^584–724. Particulars: both partners purified. A general note: ITC needs no label: the signal is the heat of the interaction.

The target of data set [3] is T3, MUT-7 NTD-EXO (Caenorhabditis elegans, UniProt P34607 1-625).
T3 sequence: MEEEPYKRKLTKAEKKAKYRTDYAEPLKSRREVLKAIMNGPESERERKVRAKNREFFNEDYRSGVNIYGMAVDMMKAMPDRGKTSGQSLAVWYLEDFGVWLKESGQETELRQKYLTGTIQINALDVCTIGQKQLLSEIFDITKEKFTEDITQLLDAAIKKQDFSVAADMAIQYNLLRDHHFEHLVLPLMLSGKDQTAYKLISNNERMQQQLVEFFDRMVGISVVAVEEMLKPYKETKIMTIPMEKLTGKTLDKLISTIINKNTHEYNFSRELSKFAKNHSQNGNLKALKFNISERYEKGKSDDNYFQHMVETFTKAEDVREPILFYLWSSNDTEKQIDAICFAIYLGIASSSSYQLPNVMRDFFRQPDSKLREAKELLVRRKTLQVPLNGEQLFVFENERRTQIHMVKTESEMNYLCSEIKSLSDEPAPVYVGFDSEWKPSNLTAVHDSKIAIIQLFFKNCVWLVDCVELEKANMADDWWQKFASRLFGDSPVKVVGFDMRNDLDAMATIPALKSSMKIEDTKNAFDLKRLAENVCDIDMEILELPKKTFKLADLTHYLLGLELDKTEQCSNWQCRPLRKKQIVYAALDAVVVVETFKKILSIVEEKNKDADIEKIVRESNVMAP
In words: fluorescence polarization; 5 mM EDTA, 150 mM NaCl; Hill h 1.491; FP, 50 nM RNA, 30 min, room temperature; C. elegans proteins: 20 mM HEPES/NaOH pH 7.5, 150 mM NaCl, 10% glycerol, 5 mM EDTA; human proteins: 20 mM HEPES/NaOH pH 7.5, 250 mM NaCl. Particulars: protein: recombinant; label: 5'-FAM; single strand.

The target in data set [4] is T4, EXD3 NTD-EXO(D399A) (Homo sapiens, UniProt Q8N9H8 1-582, D399A).
T4 sequence: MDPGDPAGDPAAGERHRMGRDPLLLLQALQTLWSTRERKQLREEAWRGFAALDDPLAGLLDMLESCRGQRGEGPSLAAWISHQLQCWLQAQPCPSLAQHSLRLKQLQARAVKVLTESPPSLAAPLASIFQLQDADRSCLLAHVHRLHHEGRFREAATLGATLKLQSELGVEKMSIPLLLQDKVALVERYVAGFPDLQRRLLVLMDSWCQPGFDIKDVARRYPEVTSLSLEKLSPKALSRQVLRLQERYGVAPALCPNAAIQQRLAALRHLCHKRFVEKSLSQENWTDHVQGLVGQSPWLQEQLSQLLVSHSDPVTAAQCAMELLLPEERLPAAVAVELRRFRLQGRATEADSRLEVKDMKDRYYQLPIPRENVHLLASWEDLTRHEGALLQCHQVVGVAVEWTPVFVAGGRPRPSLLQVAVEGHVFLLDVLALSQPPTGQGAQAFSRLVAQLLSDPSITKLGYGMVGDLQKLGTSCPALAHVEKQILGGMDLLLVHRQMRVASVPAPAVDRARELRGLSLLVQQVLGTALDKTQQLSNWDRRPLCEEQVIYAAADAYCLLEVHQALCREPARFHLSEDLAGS
In words: fluorescence polarization; 250 mM NaCl; Hill h 1.1; FP, 50 nM RNA, 30 min, room temperature; C. elegans proteins: 20 mM HEPES/NaOH pH 7.5, 150 mM NaCl, 10% glycerol, 5 mM EDTA; human proteins: 20 mM HEPES/NaOH pH 7.5, 250 mM NaCl. Particulars: protein: recombinant; label: 5'-FAM; single strand. On the technique in general: Polarisation of emitted light reports the rotation of a fluorescent probe.

Data set [5] concerns the target T5, EXD3 FL(D399A) (Homo sapiens, UniProt Q8N9H8 1-876, D399A).
T5 sequence: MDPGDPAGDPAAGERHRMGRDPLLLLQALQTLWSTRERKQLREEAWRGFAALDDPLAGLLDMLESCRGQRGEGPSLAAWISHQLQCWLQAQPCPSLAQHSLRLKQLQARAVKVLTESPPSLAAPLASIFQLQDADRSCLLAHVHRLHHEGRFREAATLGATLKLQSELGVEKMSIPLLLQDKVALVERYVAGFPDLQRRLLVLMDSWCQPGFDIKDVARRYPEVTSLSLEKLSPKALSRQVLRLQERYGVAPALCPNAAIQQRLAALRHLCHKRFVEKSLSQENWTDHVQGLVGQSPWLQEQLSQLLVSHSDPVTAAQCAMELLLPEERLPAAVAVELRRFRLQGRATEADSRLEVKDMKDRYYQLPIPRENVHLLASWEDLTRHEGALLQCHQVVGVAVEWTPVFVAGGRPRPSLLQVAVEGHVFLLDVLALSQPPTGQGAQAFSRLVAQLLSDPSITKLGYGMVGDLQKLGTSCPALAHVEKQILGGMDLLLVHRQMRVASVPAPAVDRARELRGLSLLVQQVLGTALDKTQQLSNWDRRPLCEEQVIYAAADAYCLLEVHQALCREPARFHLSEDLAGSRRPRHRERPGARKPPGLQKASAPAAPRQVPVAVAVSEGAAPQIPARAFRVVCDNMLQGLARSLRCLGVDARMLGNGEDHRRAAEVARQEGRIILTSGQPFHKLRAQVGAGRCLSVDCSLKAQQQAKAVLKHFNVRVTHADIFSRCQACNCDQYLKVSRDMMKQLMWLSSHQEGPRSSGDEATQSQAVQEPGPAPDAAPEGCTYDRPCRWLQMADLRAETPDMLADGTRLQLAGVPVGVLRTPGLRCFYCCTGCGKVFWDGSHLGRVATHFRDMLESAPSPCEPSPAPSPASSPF
As to the kind of experiment: fluorescence polarization; 250 mM NaCl; Hill h 1.029; FP, 50 nM RNA, 30 min, room temperature; C. elegans proteins: 20 mM HEPES/NaOH pH 7.5, 150 mM NaCl, 10% glycerol, 5 mM EDTA; human proteins: 20 mM HEPES/NaOH pH 7.5, 250 mM NaCl. As to conditions: protein: recombinant; label: 5'-FAM; single strand.

Data set [6] has as its target T6, MUT-7 FL (Caenorhabditis elegans, UniProt P34607 1-910).
T6 sequence: T1 sequence (looked up) 1
As to the kind of experiment: fluorescence polarization; 5 mM EDTA, 150 mM NaCl; Hill h 1.195; FP, 50 nM RNA, 30 min, room temperature; C. elegans proteins: 20 mM HEPES/NaOH pH 7.5, 150 mM NaCl, 10% glycerol, 5 mM EDTA; human proteins: 20 mM HEPES/NaOH pH 7.5, 250 mM NaCl. As to conditions: protein: recombinant; tags: His10-MBP-3C (N), 3C cleavage in purification; label: 5'-FAM; single strand.

B1: GST-tagged MUT-16^584–724 (domain or fragment, Caenorhabditis elegans, UniProt O62011 584-724, looked up)
chain: KKKSESSATDTSNTPPVDTVNVALPTPVVESSSTTAAPSIPVSTRPEVVVPPENPAPLREVGNFYSKSNHDEDRRNVQLPFTPADTHKPIKVAPKEPVRNPLLKERPSANGFINRRLPSHPAPPPVNQSQPANQPMQTAVY
notes: numbers count on the longer isoform B0379.3a.1 (O62011); source: E. coli BL21(DE3) derivative, purified
B1: in data set [1], the binding result was “binds”.

B2: MUT-16^584–724 (domain or fragment, Caenorhabditis elegans, UniProt O62011 584-724, looked up)
chain: B1 chain
notes: numbers count on the longer isoform B0379.3a.1 (O62011); an untagged form was purified for CD; source: E. coli BL21(DE3) derivative; co-expressed with MBP-tagged MUT-8 constructs, in lysate; co-expressed with MUT-8^NTD and purified as complex; purified
A word on the Kd: it is the concentration at which binding is half-saturated. In turn, B2 registered a Kd in data set [2] of around 13 µM.

B3: 16-mer ssRNA (ssRNA)
RNA: GUUGAUUGAAGAGUUC
For B3, the Kd in data set [3] amounted to 18.7 µM; in data set [4], 11.2 µM; in data set [5], 1.86 µM; in data set [6] it was 2.33 µM.

B4: GST-tagged MUT-16^1–724 (domain or fragment, Caenorhabditis elegans, UniProt O62011 1-724, looked up)
chain: MSESDDDYPELDISDQYIDPLGIVVGPPPASYTETDREETPMQNRTEDDTNSYGNSSGEHDYDSYLDSGDDDFDVDAYYANDNMDEPPPETIPDNLIQNVIGRNDNADYDFSDASNPEIMKRDLQLFLSSSLLSNPLKFRSGYSSDELDDCLKSCMGYSLQVTAVLLLPPEIISQLPNDSKTEHAHALVRGGWLQSKEGAFFPVISDSERETVVSLMNGSEEQHKRQERKKKEADTFESEEKEIRTLLTFNMIAELLMAVRNEYSIRSVKYQILSTAYTNMVTGAAHANIFRKYKDILQLDPEKLWNNDWFKEYTNRGTLKKFLTTARFSEIVVSQANGKTVELYFRADDEGNRPVVLFTDEHIADVRNKWKTGNQRNQNYGSQGNYRAGGQRSDDRRGPQQRRNVIVPDPNYQPSTFAGGISNNADDDGSLQPTTSSHFNRNTDRSTSRPPRAPTSPVNRVMETDPLMGQGTSSGAPQRSAIPNPFGGAPALSRSTITNGNRGPSYGDRGERVQDVGDTTSDSEITSEGSYSDEDPEQKEIKRQRRKDKLKKKQERELRSREKHTKSKQQPPSKIETRFNTYKKKSESSATDTSNTPPVDTVNVALPTPVVESSSTTAAPSIPVSTRPEVVVPPENPAPLREVGNFYSKSNHDEDRRNVQLPFTPADTHKPIKVAPKEPVRNPLLKERPSANGFINRRLPSHPAPPPVNQSQPANQPMQTAVY
notes: numbers count on the longer isoform B0379.3a.1 (O62011); also called the longest MUT-16 construct; source: E. coli BL21(DE3) derivative, purified
On to B4, for which, in data set [1], the binding result is on record as “binds”.
